Source: patent US20230140293A1

Key:
[1] = biological target: CH0505TF.gly3.197 Env, Env-pseudotyped virus produced in 293T cells (HIV-1); assay: cell-based or functional assay
[2] = biological target: CH0505TF.gly3.461 Env, Env-pseudotyped virus produced in 293S GnTI- cells (Man5-enriched) (HIV-1); assay: cell-based or functional assay
[3] = biological target: CH0505TF.gly4 Env, Env-pseudotyped virus produced in 293S GnTI- cells (Man5-enriched) (HIV-1); assay: cell-based or functional assay
[4] = biological target: HIV-1 Env 426c.SM (N276D), Env-pseudotyped virus produced in 293T cells (HIV-1 clade C strain 426c); assay: cell-based or functional assay
[5] = biological target: HIV-1 clade C strain 426c Env on Env-pseudotyped virus produced in 293T cells (HIV-1); assay: cell-based or functional assay
[6] = biological target: CH0505TF.gly3.461 Env, Env-pseudotyped virus produced in 293T cells (HIV-1); assay: cell-based or functional assay
[7] = biological target: HIV-1 Env 426c.DM (N460D.N463D), Env-pseudotyped virus produced in 293T cells (HIV-1 clade C strain 426c); assay: cell-based or functional assay
[8] = biological target: HIV-1 Env 426c, Env-pseudotyped virus produced in 293T cells (HIV-1 clade C strain 426c); assay: cell-based or functional assay
[9] = biological target: CH0505.w4.3 Env, Env-pseudotyped virus produced in 293T cells (HIV-1); assay: cell-based or functional assay
[10] = biological target: CH0505TF.gly3.276 Env, Env-pseudotyped virus produced in 293S GnTI- cells (Man5-enriched) (HIV-1); assay: cell-based or functional assay
[11] = biological target: CH0505TF.gly3.197 Env, Env-pseudotyped virus produced in 293S GnTI- cells (Man5-enriched) (HIV-1); assay: cell-based or functional assay
[12] = biological target: HIV-1 426c.TM (N276D/N460D/N463D) Env on Env-pseudotyped virus produced in 293s/GnTI-/- cells (Man5-enrichment) (HIV-1); assay: cell-based or functional assay
[13] = biological target: HIV-1 Env 426c.DM (N460D.N463D), Env-pseudotyped virus produced in 293S GnTI- cells (Man5-enriched) (HIV-1 clade C strain 426c); assay: cell-based or functional assay
[14] = biological target: CH0505TF.gly4 Env, Env-pseudotyped virus produced in 293T cells (HIV-1); assay: cell-based or functional assay
[15] = biological target: CH0505TF.G458Y Env, Env-pseudotyped virus produced in 293S GnTI- cells (Man5-enriched) (HIV-1); assay: cell-based or functional assay
[16] = biological target: HIV-1 Env 426c.SM (N276D), Env-pseudotyped virus produced in 293S GnTI- cells (Man5-enriched) (HIV-1 clade C strain 426c); assay: cell-based or functional assay
[17] = biological target: HIV-1 clade C strain 426c Env on Env-pseudotyped virus produced in 293s/GnTI-/- cells (Man5-enrichment) (HIV-1); assay: cell-based or functional assay
[18] = biological target: HIV-1 426c.SM (N276D) Env on Env-pseudotyped virus produced in 293s/GnTI-/- cells (Man5-enrichment) (HIV-1); assay: cell-based or functional assay
[19] = biological target: HIV-1 426c.DM (N460D/N463D) Env on Env-pseudotyped virus produced in 293T cells (HIV-1); assay: cell-based or functional assay
[20] = biological target: HIV-1 426c.TM (N276D/N460D/N463D) Env on Env-pseudotyped virus produced in 293T cells (HIV-1); assay: cell-based or functional assay
[21] = biological target: CH0505TF.gly3.276 Env, Env-pseudotyped virus produced in 293T cells (HIV-1); assay: cell-based or functional assay
[22] = biological target: HIV-1 Env 426c, Env-pseudotyped virus produced in 293S GnTI- cells (Man5-enriched) (HIV-1 clade C strain 426c); assay: cell-based or functional assay
[23] = biological target: HIV-1 Env 426c.TM4 (S278R.G471S.N460D.N463D), Env-pseudotyped virus produced in 293S GnTI- cells (Man5-enriched) (HIV-1 clade C strain 426c); assay: cell-based or functional assay
[24] = biological target: CH0505TF Env, Env-pseudotyped virus produced in 293S GnTI- cells (Man5-enriched) (HIV-1); assay: cell-based or functional assay
[25] = biological target: HIV-1 426c.SM (N276D) Env on Env-pseudotyped virus produced in 293T cells (HIV-1); assay: cell-based or functional assay
[26] = biological target: HIV-1 Env 426c.TM4 (S278R.G471S.N460D.N463D), Env-pseudotyped virus produced in 293T cells (HIV-1 clade C strain 426c); assay: cell-based or functional assay
[27] = biological target: HIV-1 426c.DM (N460D/N463D) Env on Env-pseudotyped virus produced in 293s/GnTI-/- cells (Man5-enrichment) (HIV-1); assay: cell-based or functional assay
[28] = biological target: CH0505TF Env, Env-pseudotyped virus produced in 293T cells (HIV-1); assay: cell-based or functional assay
[29] = biological target: HIV-1 Env 426c.TM (N276D.N460D.N463D), Env-pseudotyped virus produced in 293T cells (HIV-1 clade C strain 426c); assay: cell-based or functional assay
[30] = biological target: CH0505TF.G458Y Env, Env-pseudotyped virus produced in 293T cells (HIV-1); assay: cell-based or functional assay
[31] = biological target: HIV-1 Env 426c.TM (N276D.N460D.N463D), Env-pseudotyped virus produced in 293S GnTI- cells (Man5-enriched) (HIV-1 clade C strain 426c); assay: cell-based or functional assay
CH505 M5 gp120 (HIV-1) = assay: ELISA, gp120 on plate
[32] = biological target: CH505 w030.28 gp120 (HIV-1); assay: ELISA, gp120 on plate
[33] = biological target: CH505 transmitted/founder (TF) gp120 (HIV-1); assay: ELISA, gp120 on plate
CH505 M11 gp120 (HIV-1) = assay: ELISA, gp120 on plate
[34] = biological target: CH505 w020.14 gp120 (HIV-1); assay: ELISA, gp120 on plate
[35] = biological target: CH505 w078.15 gp120 (HIV-1); assay: ELISA, gp120 on plate

Substance | IC50 (µg/ml) in TZM-bl [1] [µg/mL] | IC50 (µg/ml) in TZM-bl [2] [µg/mL] | IC50 (µg/ml) in TZM-bl [3] [µg/mL] | IC50 (µg/ml) in TZM-bl [4] [µg/mL] | ID50/IC50 in TZM-bl [5] [µg/mL] | IC50 (µg/ml) in TZM-bl [6] [µg/mL] | IC50 (µg/ml) in TZM-bl [7] [µg/mL] | IC50 (µg/ml) in TZM-bl [8] [µg/mL] | IC50 (µg/ml) in TZM-bl [9] [µg/mL] | IC50 (µg/ml) in TZM-bl [10] [µg/mL] | IC50 (µg/ml) in TZM-bl [11] [µg/mL] | ID50/IC50 in TZM-bl [12] [µg/mL] | IC50 (µg/ml) in TZM-bl [13] [µg/mL] | IC50 (µg/ml) in TZM-bl [14] [µg/mL] | IC50 (µg/ml) in TZM-bl [15] [µg/mL] | IC50 (µg/ml) in TZM-bl [16] [µg/mL] | ID50/IC50 in TZM-bl [17] [µg/mL] | ID50/IC50 in TZM-bl [18] [µg/mL] | ID50/IC50 in TZM-bl [19] [µg/mL] | ID50/IC50 in TZM-bl [20] [µg/mL] | other results
2G12 (antibody) | > 25 | > 25 | > 25 | > 25 | > 25 | > 25 | > 25 | > 25 | > 50 | > 25 | > 25 | > 25 | > 25 | > 25 | > 25 | > 25 | > 25 | > 25 | > 25 | > 25 | IC50 (µg/ml) in TZM-bl [21]: > 25 µg/mL; IC50 (µg/ml) in TZM-bl [22]: > 25 µg/mL; IC50 (µg/ml) in TZM-bl [23]: > 25 µg/mL; IC50 (µg/ml) in TZM-bl [24]: > 25 µg/mL; ID50/IC50 in TZM-bl [25]: > 25 µg/mL; IC50 (µg/ml) in TZM-bl [26]: > 25 µg/mL; ID50/IC50 in TZM-bl [27]: > 25 µg/mL; IC50 (µg/ml) in TZM-bl [28]: > 25 µg/mL; IC50 (µg/ml) in TZM-bl [29]: > 25 µg/mL; IC50 (µg/ml) in TZM-bl [30]: > 25 µg/mL; IC50 (µg/ml) in TZM-bl [31]: > 25 µg/mL
CH103 lineage intermediate ancestor IA7 (antibody) | – | – | – | – | – | – | – | – | – | – | – | – | – | – | – | – | – | – | – | – | log AUC (CH505 M5 gp120 (HIV-1)): 2.3 log AUC; log AUC [32]: 3.5 log AUC; log AUC [33]: 9.2 log AUC; log AUC (CH505 M11 gp120 (HIV-1)): 10.1 log AUC; log AUC [34]: 7.2 log AUC; log AUC [35]: 0.7 log AUC
PG9 (antibody) | 0.24 | 0.05 | 0.02 | > 5 | > 5 | 0.22 | > 5 | > 5 | 1.8 | 0.04 | 0.06 | > 5 | > 5 | 0.21 | 0.04 | > 5 | > 5 | > 5 | > 5 | > 5 | IC50 (µg/ml) in TZM-bl [21]: 0.17 µg/mL; IC50 (µg/ml) in TZM-bl [22]: > 5 µg/mL; IC50 (µg/ml) in TZM-bl [23]: > 5 µg/mL; IC50 (µg/ml) in TZM-bl [24]: 0.11 µg/mL; ID50/IC50 in TZM-bl [25]: > 5 µg/mL; IC50 (µg/ml) in TZM-bl [26]: > 5 µg/mL; ID50/IC50 in TZM-bl [27]: > 5 µg/mL; IC50 (µg/ml) in TZM-bl [28]: 0.19 µg/mL; IC50 (µg/ml) in TZM-bl [29]: > 5 µg/mL; IC50 (µg/ml) in TZM-bl [30]: 0.1 µg/mL; IC50 (µg/ml) in TZM-bl [31]: > 5 µg/mL
